From publication PMC8489928 (mAbs, 2021) come the findings set out here.

Numbering of substitutions follows the chain as printed. Names may count otherwise.

Data set [1] deals with Mouse CD96 D1 (mouse) (UniProt Q3U0X8). Nature of the data set: SEC-MALS. On the technique in general: Size exclusion chromatography separates by hydrodynamic size, large species first.
Data set [2] addresses Human CD96 D1 (human) (UniProt P40200). Nature of the data set: SEC-MALS.
Data set [3] concerns the molecule itself. Nature of the data set: SEC-MALS.
The target of data set [4] is T1, Mouse CD96 D1 (mouse, UniProt Q3U0X8). Nature of the data set: SPR.
The target in data set [5] is T1, Mouse CD96 D1. Nature of the data set: SEC-MALS.

One may read the stoichiometry N as a count of units in the complex or per binding partner. In turn, Mouse CD155 (ligand) had a stoichiometry N in data set [1] of 1.

“Human CD155 (from UniProt P15151 21-417) (ligand)” had a stoichiometry N in data set [2] of 1.

B1: Mouse CD96 D1-D3 (domain or fragment, UniProt Q3U0X8 22-536, looked up)
chain: VWEELFNVGDDVYALPGSDINLTCQTKEKNFLVQMQWSKVTDKNDMIALYHPQYGLYCGQEHACESQVAATETEKGVTNWTLYLRNISSALGGKYECIFTLYPEGIKTTVYNLIVEPYTQDEHNYTIEIETNRTLEIPCFQNTSSEIPPRFTFSWLVEKDGVEEVLFTHHHHVNNSTSFKGRIRLGGDYRLHLSPVQIQDDGRTFSCHLTVNPLKAWKMSTTVKVFAKPEILMTVENSTMDVLGERVFTCLLKNVFPKANITWFIDGRFLQGNEEGIYITNEEKNCSSGFWELKSVLTRMHSGPSQSNNMTAWCMALSPGPRNKMWNTSSQPITVSFDSVIAPTKHLPTVTGSTLGTQPFSDAGVSPTGYLATPSVTIVDENGLTPDATPQTSNSSMTTKDGNYLEASSGTDAKNSSRAAASSKSGSWPFPFTSPPEWHSLPGTSTGPQEPDSPVSWIPSEVHTSAPLDASLAPHDTIISTTTEFPNVLTTANGTTKIDHGPITSIIVNQPSDGM
On to B1, for which the “stoichiometry N” value in data set [3] came to 2.

B2: Mouse CD96 D1 (domain or fragment, UniProt Q3U0X8 22-134, looked up)
chain: VWEELFNVGDDVYALPGSDINLTCQTKEKNFLVQMQWSKVTDKNDMIALYHPQYGLYCGQEHACESQVAATETEKGVTNWTLYLRNISSALGGKYECIFTLYPEGIKTTVYNL
In the case of B2, the “stoichiometry N” value in data set [3] stood at 2.

B3: Human CD96 D1-D3 (domain or fragment, UniProt P40200 22-519, looked up)
chain: VWEKTVNTEENVYATLGSDVNLTCQTQTVGFFVQMQWSKVTNKIDLIAVYHPQYGFYCAYGRPCESLVTFTETPENGSKWTLHLRNMSCSVSGRYECMLVLYPEGIQTKIYNLLIQTHVTADEWNSNHTIEIEINQTLEIPCFQNSSSKISSEFTYAWSVENSSTDSWVLLSKGIKEDNGTQETLISQNHLISNSTLLKDRVKLGTDYRLHLSPVQIFDDGRKFSCHIRVGPNKILRSSTTVKVFAKPEIPVIVENNSTDVLVERRFTCLLKNVFPKANITWFIDGSFLHDEKEGIYITNEERKGKDGFLELKSVLTRVHSNKPAQSDNLTIWCMALSPVPGNKVWNISSEKITFLLGSEISSTDPPLSVTESTLDTQPSPASSVSPARYPATSSVTLVDVSALRPNTTPQPSNSSMTTRGFNYPWTSSGTDTKKSVSRIPSETYSSSPSGAGSTLHDNVFTSTARAFSEVPTTANGSTKTNHVHITGIVVNKPKDGM
B3: the “stoichiometry N” value in data set [3] is 2.

B4: mCD96-A heavy-chain G56K (Fab, V domains shown)
VH: QVQLKESGPGLVQPSQTLSLTCTVSGLSLTTNSVSWIRQPPGKGLEWMGVIWSNGKTDYNSDIKSRLSISRDTSKSQVFLKMNSLQTEDTAMYFCARNFPYPGINFDWGQGVMVTVSS
VL: QAVVTQESALTTLPGGTVTLTCHSSTGAVTTSNYANWIQEKADHSFTAILGGTSNRAPGTPARFSGSLLEGKAALTITGAQVEDEATYFCSLWYSGHLIFGGGTKLTVK
Consider B4, for which the binding result in data set [4] is reported as “binds”.

B5: mCD96-A Fab (Fab, V domains shown)
VH: B4 VH with K56G
VL: B4 VL
Take B5: the “stoichiometry N” value in data set [5] was determined as 1.

B6: mCD96-A heavy-chain F101M (Fab, V domains shown)
VH: B4 VH with K56G, F106M
VL: B4 VL
With B6, the binding result in data set [4] is “binds”.

B7: mCD96-A light-chain G50H (Fab, V domains shown)
VH: B4 VH with K56G
VL: B4 VL with G52H
Consider B7, for which the binding result in data set [4] is reported as “binds”.

B8: mCD96-A-7 Fab (Fab, V domains shown)
VH: B4 VH with F106M
VL: B4 VL with G52H
Consider B8, for which the “stoichiometry N” value in data set [5] is 1.

B9: Human CD96 D1 (domain or fragment, UniProt P40200 22-140, looked up)
chain: VWEKTVNTEENVYATLGSDVNLTCQTQTVGFFVQMQWSKVTNKIDLIAVYHPQYGFYCAYGRPCESLVTFTETPENGSKWTLHLRNMSCSVSGRYECMLVLYPEGIQTKIYNLLIQTHV
Regarding B9, the “stoichiometry N” value in data set [3] is 2.
